From PMC5768722

Molecular target: Pertuzumab Cλ variants
Experiment: BLI; antibody light chain variants pre-loaded on Anti-hIgG-Fc Capture (AHC) biosensors, Her2 at 100 nM to 6.25 nM, Octet QKe, 1x kinetic buffer

Kd: 0.77 to 1.42 nM
Substance: HIS-tagged Her2 (recombinant extracellular portion) (from UniProt P04626 23-652) (domain or fragment)
